Test results from patent CN106046162A (DONG ZHUMING BIOTECH CO LTD, dated 2016).

Experiments:
人PD-1-Fc重组蛋白(RD) [1] = biological target: T1, 人PD-1-Fc重组蛋白(RD) (human, UniProt Q15116 21-167, limits assumed); test: ELISA, 3-fold dilutions of the antibody in 12 steps, goat anti-mouse IgG-Fc-HRP; the text prints the coat as hPD-L1-Fc but reports affinity for PD-1
T1 construct: Bought recombinant protein (RD); also called hPD-1-Fc; hPD-1; not shown: Fc part of the bought fusion protein

人PD-1-Fc重组蛋白(RD) [2] = biological target: T1, 人PD-1-Fc重组蛋白(RD); test: Biacore blocking assay, hPD-1-Fc on the chip, 2-fold dilutions of the antibody in 7 steps; blocks PD-1 binding to B7-H1

T1 sequence (Q15116 21-167 limits assumed): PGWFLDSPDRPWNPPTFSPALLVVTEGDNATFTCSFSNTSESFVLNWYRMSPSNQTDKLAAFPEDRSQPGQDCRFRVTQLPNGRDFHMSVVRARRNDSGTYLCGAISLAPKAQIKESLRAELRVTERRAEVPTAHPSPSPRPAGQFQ

EC50 (人PD-1-Fc重组蛋白(RD) [1]): 1.07 nM
EC50 (人PD-1-Fc重组蛋白(RD) [2]): 64.4 nM
B1: 抗人PD-1单克隆抗体2-189-H-1 (antibody, V domains shown)
VH: QVQLKESGPGLVAPSQSLSITCTVSGFSLTTYGVSWVRQPPGKGLEWLGVIWGDGSTDYHSVLISRLSITKDISKSQVFLKLNSLQSDDTATYYCAQQGSRGDYWGQGTTLTVSS
VL: DVLLTQTPLSLPVSLGDQASISCRSSQTIVHSNGITYLEWYLQKPGQSPKALISKVSNRLSGVPDRFSGSGSGTDFTLKISRVEAEDLGVYYCFQGSHIPYTFGGGTKLEIK
notes: Mouse hybridoma antibody (CCTCC C2015160), purified on Protein A; also called 本抗体; hPD-1抗体
